Measurements: patent US20210388087A1 (Chugai, published 2021)

molecular target: T1, CD3 epsilon homodimer protein (UniProt P07766 23-126); test: SPR, antibody over immobilised CD3e homodimer;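 also: SPR at 25 °C with CD3 epsilon homodimer amine-coupled to a CM4 sensor chip and antibody flowed over as analyte in HBS-EP+ running buffer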
T1 construct: also called CD3 (CD3 epsilon)
T1 sequence (P07766 23-126): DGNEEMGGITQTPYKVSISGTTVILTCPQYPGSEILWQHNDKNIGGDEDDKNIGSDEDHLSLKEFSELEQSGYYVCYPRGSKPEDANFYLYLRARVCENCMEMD

Row | Binder | KD ratio to GLS3000
1 | CE115HA000/GLS3000 R29T (antibody, IgG1, name in Kabat numbering, V domains shown, one-arm IgG1) VH: QVQLVESGGGVVQPGRSLRLSCAASGFTFSNAWMHWVRQAPGKGLEWVAQIKAKSNNYATYYAESVKGRFTISRDDSKNSLYLQMNSLKTEDTAVYYCRYVHYGAYYGVDAWGQGTTVTVSS VL: DIVMTQSPLSLPVTPGEPASISCRSSQSLVHSNTNTYLHWYQQKPGQAPRLLIYKVSNRFSGVPDRFSGSGSGTDFTLKISRVEAEDVGVYYCGQGTQVPYTFGQGTKLEIK | 1.02
2 | CE115HA000/GLS3000 R29V (antibody, IgG1, name in Kabat numbering, V domains shown, one-arm IgG1) VH: QVQLVESGGGVVQPGRSLRLSCAASGFTFSNAWMHWVRQAPGKGLEWVAQIKAKSNNYATYYAESVKGRFTISRDDSKNSLYLQMNSLKTEDTAVYYCRYVHYGAYYGVDAWGQGTTVTVSS VL: DIVMTQSPLSLPVTPGEPASISCRSSQSLVHSNVNTYLHWYQQKPGQAPRLLIYKVSNRFSGVPDRFSGSGSGTDFTLKISRVEAEDVGVYYCGQGTQVPYTFGQGTKLEIK | 2.25
3 | CE115HA000/GLS3000 R29Y (antibody, IgG1, name in Kabat numbering, V domains shown, one-arm IgG1) VH: QVQLVESGGGVVQPGRSLRLSCAASGFTFSNAWMHWVRQAPGKGLEWVAQIKAKSNNYATYYAESVKGRFTISRDDSKNSLYLQMNSLKTEDTAVYYCRYVHYGAYYGVDAWGQGTTVTVSS VL: DIVMTQSPLSLPVTPGEPASISCRSSQSLVHSNYNTYLHWYQQKPGQAPRLLIYKVSNRFSGVPDRFSGSGSGTDFTLKISRVEAEDVGVYYCGQGTQVPYTFGQGTKLEIK | 1.08
4 | CE115HA000/GLS3000 R54A (antibody, IgG1, name in Kabat numbering, V domains shown, one-arm IgG1) VH: QVQLVESGGGVVQPGRSLRLSCAASGFTFSNAWMHWVRQAPGKGLEWVAQIKAKSNNYATYYAESVKGRFTISRDDSKNSLYLQMNSLKTEDTAVYYCRYVHYGAYYGVDAWGQGTTVTVSS VL: DIVMTQSPLSLPVTPGEPASISCRSSQSLVHSNRNTYLHWYQQKPGQAPRLLIYKVSNAFSGVPDRFSGSGSGTDFTLKISRVEAEDVGVYYCGQGTQVPYTFGQGTKLEIK | 0.85
5 | CE115HA000/GLS3000 R54D (antibody, IgG1, name in Kabat numbering, V domains shown, one-arm IgG1) VH: QVQLVESGGGVVQPGRSLRLSCAASGFTFSNAWMHWVRQAPGKGLEWVAQIKAKSNNYATYYAESVKGRFTISRDDSKNSLYLQMNSLKTEDTAVYYCRYVHYGAYYGVDAWGQGTTVTVSS VL: DIVMTQSPLSLPVTPGEPASISCRSSQSLVHSNRNTYLHWYQQKPGQAPRLLIYKVSNDFSGVPDRFSGSGSGTDFTLKISRVEAEDVGVYYCGQGTQVPYTFGQGTKLEIK | 1.8
6 | CE115HA000/GLS3000 R54E (antibody, IgG1, name in Kabat numbering, V domains shown, one-arm IgG1) VH: QVQLVESGGGVVQPGRSLRLSCAASGFTFSNAWMHWVRQAPGKGLEWVAQIKAKSNNYATYYAESVKGRFTISRDDSKNSLYLQMNSLKTEDTAVYYCRYVHYGAYYGVDAWGQGTTVTVSS VL: DIVMTQSPLSLPVTPGEPASISCRSSQSLVHSNRNTYLHWYQQKPGQAPRLLIYKVSNEFSGVPDRFSGSGSGTDFTLKISRVEAEDVGVYYCGQGTQVPYTFGQGTKLEIK | 0.84
7 | CE115HA000/GLS3000 R54G (antibody, IgG1, name in Kabat numbering, V domains shown, one-arm IgG1) VH: QVQLVESGGGVVQPGRSLRLSCAASGFTFSNAWMHWVRQAPGKGLEWVAQIKAKSNNYATYYAESVKGRFTISRDDSKNSLYLQMNSLKTEDTAVYYCRYVHYGAYYGVDAWGQGTTVTVSS VL: DIVMTQSPLSLPVTPGEPASISCRSSQSLVHSNRNTYLHWYQQKPGQAPRLLIYKVSNGFSGVPDRFSGSGSGTDFTLKISRVEAEDVGVYYCGQGTQVPYTFGQGTKLEIK | 0.88
8 | CE115HA000/GLS3000 R54P (antibody, IgG1, name in Kabat numbering, V domains shown, one-arm IgG1) VH: QVQLVESGGGVVQPGRSLRLSCAASGFTFSNAWMHWVRQAPGKGLEWVAQIKAKSNNYATYYAESVKGRFTISRDDSKNSLYLQMNSLKTEDTAVYYCRYVHYGAYYGVDAWGQGTTVTVSS VL: DIVMTQSPLSLPVTPGEPASISCRSSQSLVHSNRNTYLHWYQQKPGQAPRLLIYKVSNPFSGVPDRFSGSGSGTDFTLKISRVEAEDVGVYYCGQGTQVPYTFGQGTKLEIK | 1.05
9 | CE115HA000/GLS3000 R54Q (antibody, IgG1, name in Kabat numbering, V domains shown, one-arm IgG1) VH: QVQLVESGGGVVQPGRSLRLSCAASGFTFSNAWMHWVRQAPGKGLEWVAQIKAKSNNYATYYAESVKGRFTISRDDSKNSLYLQMNSLKTEDTAVYYCRYVHYGAYYGVDAWGQGTTVTVSS VL: DIVMTQSPLSLPVTPGEPASISCRSSQSLVHSNRNTYLHWYQQKPGQAPRLLIYKVSNQFSGVPDRFSGSGSGTDFTLKISRVEAEDVGVYYCGQGTQVPYTFGQGTKLEIK | 1.04
10 | CE115HA000/GLS3000 R54S (antibody, IgG1, name in Kabat numbering, V domains shown, one-arm IgG1) VH: QVQLVESGGGVVQPGRSLRLSCAASGFTFSNAWMHWVRQAPGKGLEWVAQIKAKSNNYATYYAESVKGRFTISRDDSKNSLYLQMNSLKTEDTAVYYCRYVHYGAYYGVDAWGQGTTVTVSS VL: DIVMTQSPLSLPVTPGEPASISCRSSQSLVHSNRNTYLHWYQQKPGQAPRLLIYKVSNSFSGVPDRFSGSGSGTDFTLKISRVEAEDVGVYYCGQGTQVPYTFGQGTKLEIK | 0.78
11 | CE115HA000/GLS3000 R54T (antibody, IgG1, name in Kabat numbering, V domains shown, one-arm IgG1) VH: QVQLVESGGGVVQPGRSLRLSCAASGFTFSNAWMHWVRQAPGKGLEWVAQIKAKSNNYATYYAESVKGRFTISRDDSKNSLYLQMNSLKTEDTAVYYCRYVHYGAYYGVDAWGQGTTVTVSS VL: DIVMTQSPLSLPVTPGEPASISCRSSQSLVHSNRNTYLHWYQQKPGQAPRLLIYKVSNTFSGVPDRFSGSGSGTDFTLKISRVEAEDVGVYYCGQGTQVPYTFGQGTKLEIK | 0.89
12 | CE115HA000/GLS3000 R54W (antibody, IgG1, name in Kabat numbering, V domains shown, one-arm IgG1) VH: QVQLVESGGGVVQPGRSLRLSCAASGFTFSNAWMHWVRQAPGKGLEWVAQIKAKSNNYATYYAESVKGRFTISRDDSKNSLYLQMNSLKTEDTAVYYCRYVHYGAYYGVDAWGQGTTVTVSS VL: DIVMTQSPLSLPVTPGEPASISCRSSQSLVHSNRNTYLHWYQQKPGQAPRLLIYKVSNWFSGVPDRFSGSGSGTDFTLKISRVEAEDVGVYYCGQGTQVPYTFGQGTKLEIK | 0.65
13 | CE115HA000/GLS3000 R77S (antibody, IgG1, name in Kabat numbering, V domains shown, one-arm IgG1) VH: QVQLVESGGGVVQPGRSLRLSCAASGFTFSNAWMHWVRQAPGKGLEWVAQIKAKSNNYATYYAESVKGRFTISRDDSKNSLYLQMNSLKTEDTAVYYCRYVHYGAYYGVDAWGQGTTVTVSS VL: DIVMTQSPLSLPVTPGEPASISCRSSQSLVHSNRNTYLHWYQQKPGQAPRLLIYKVSNRFSGVPDRFSGSGSGTDFTLKISSVEAEDVGVYYCGQGTQVPYTFGQGTKLEIK | 0.94
14 | CE115HA000/GLS3000 S25A (antibody, IgG1, name in Kabat numbering, V domains shown, one-arm IgG1) VH: QVQLVESGGGVVQPGRSLRLSCAASGFTFSNAWMHWVRQAPGKGLEWVAQIKAKSNNYATYYAESVKGRFTISRDDSKNSLYLQMNSLKTEDTAVYYCRYVHYGAYYGVDAWGQGTTVTVSS VL: DIVMTQSPLSLPVTPGEPASISCRASQSLVHSNRNTYLHWYQQKPGQAPRLLIYKVSNRFSGVPDRFSGSGSGTDFTLKISRVEAEDVGVYYCGQGTQVPYTFGQGTKLEIK | 0.73

More lines, now with the values ahead:

Row | KD ratio to GLS3000 | Binder
15 | 8.86 | CE115HA000/GLS3000 S25D (antibody, IgG1, name in Kabat numbering, V domains shown, one-arm IgG1) VH: QVQLVESGGGVVQPGRSLRLSCAASGFTFSNAWMHWVRQAPGKGLEWVAQIKAKSNNYATYYAESVKGRFTISRDDSKNSLYLQMNSLKTEDTAVYYCRYVHYGAYYGVDAWGQGTTVTVSS VL: DIVMTQSPLSLPVTPGEPASISCRDSQSLVHSNRNTYLHWYQQKPGQAPRLLIYKVSNRFSGVPDRFSGSGSGTDFTLKISRVEAEDVGVYYCGQGTQVPYTFGQGTKLEIK
16 | 8.54 | CE115HA000/GLS3000 S25E (antibody, IgG1, name in Kabat numbering, V domains shown, one-arm IgG1) VH: QVQLVESGGGVVQPGRSLRLSCAASGFTFSNAWMHWVRQAPGKGLEWVAQIKAKSNNYATYYAESVKGRFTISRDDSKNSLYLQMNSLKTEDTAVYYCRYVHYGAYYGVDAWGQGTTVTVSS VL: DIVMTQSPLSLPVTPGEPASISCRESQSLVHSNRNTYLHWYQQKPGQAPRLLIYKVSNRFSGVPDRFSGSGSGTDFTLKISRVEAEDVGVYYCGQGTQVPYTFGQGTKLEIK
17 | 0.67 | CE115HA000/GLS3000 S25I (antibody, IgG1, name in Kabat numbering, V domains shown, one-arm IgG1) VH: QVQLVESGGGVVQPGRSLRLSCAASGFTFSNAWMHWVRQAPGKGLEWVAQIKAKSNNYATYYAESVKGRFTISRDDSKNSLYLQMNSLKTEDTAVYYCRYVHYGAYYGVDAWGQGTTVTVSS VL: DIVMTQSPLSLPVTPGEPASISCRISQSLVHSNRNTYLHWYQQKPGQAPRLLIYKVSNRFSGVPDRFSGSGSGTDFTLKISRVEAEDVGVYYCGQGTQVPYTFGQGTKLEIK
18 | 4.93 | CE115HA000/GLS3000 S25L (antibody, IgG1, name in Kabat numbering, V domains shown, one-arm IgG1) VH: QVQLVESGGGVVQPGRSLRLSCAASGFTFSNAWMHWVRQAPGKGLEWVAQIKAKSNNYATYYAESVKGRFTISRDDSKNSLYLQMNSLKTEDTAVYYCRYVHYGAYYGVDAWGQGTTVTVSS VL: DIVMTQSPLSLPVTPGEPASISCRLSQSLVHSNRNTYLHWYQQKPGQAPRLLIYKVSNRFSGVPDRFSGSGSGTDFTLKISRVEAEDVGVYYCGQGTQVPYTFGQGTKLEIK
19 | 1.6 | CE115HA000/GLS3000 S25M (antibody, IgG1, name in Kabat numbering, V domains shown, one-arm IgG1) VH: QVQLVESGGGVVQPGRSLRLSCAASGFTFSNAWMHWVRQAPGKGLEWVAQIKAKSNNYATYYAESVKGRFTISRDDSKNSLYLQMNSLKTEDTAVYYCRYVHYGAYYGVDAWGQGTTVTVSS VL: DIVMTQSPLSLPVTPGEPASISCRMSQSLVHSNRNTYLHWYQQKPGQAPRLLIYKVSNRFSGVPDRFSGSGSGTDFTLKISRVEAEDVGVYYCGQGTQVPYTFGQGTKLEIK
20 | 0.79 | CE115HA000/GLS3000 S25P (antibody, IgG1, name in Kabat numbering, V domains shown, one-arm IgG1) VH: QVQLVESGGGVVQPGRSLRLSCAASGFTFSNAWMHWVRQAPGKGLEWVAQIKAKSNNYATYYAESVKGRFTISRDDSKNSLYLQMNSLKTEDTAVYYCRYVHYGAYYGVDAWGQGTTVTVSS VL: DIVMTQSPLSLPVTPGEPASISCRPSQSLVHSNRNTYLHWYQQKPGQAPRLLIYKVSNRFSGVPDRFSGSGSGTDFTLKISRVEAEDVGVYYCGQGTQVPYTFGQGTKLEIK
21 | 0.75 | CE115HA000/GLS3000 S25T (antibody, IgG1, name in Kabat numbering, V domains shown, one-arm IgG1) VH: QVQLVESGGGVVQPGRSLRLSCAASGFTFSNAWMHWVRQAPGKGLEWVAQIKAKSNNYATYYAESVKGRFTISRDDSKNSLYLQMNSLKTEDTAVYYCRYVHYGAYYGVDAWGQGTTVTVSS VL: DIVMTQSPLSLPVTPGEPASISCRTSQSLVHSNRNTYLHWYQQKPGQAPRLLIYKVSNRFSGVPDRFSGSGSGTDFTLKISRVEAEDVGVYYCGQGTQVPYTFGQGTKLEIK
